Source: PMC5083130

What was measured:
[1] = target: NCS-Orf16 (S. carzinostaticus); assay: SEC
[2] = target: SgcJ (Streptomyces globisporus); assay: SEC

stoichiometry N [1]	stoichiometry N [2]	Substance
2	–	NCS-Orf16 (natural protein)
–	2	SgcJ (natural protein)
